Test results published in patent US20160279215A1, “NOVEL PEPTIDES AND COMBINATION OF PEPTIDES FOR USE IN IMMUNOTHERAPY AGAINST VARIOUS TUMORS” (immatics biotechnologies GmbH, priority 2015, published 2016).

Assays:
HLA-A*02:01 = target: T1, HLA-A*02:01 (Homo sapiens, UniProt P04439, D140Y/D185E/D98H/E176V/E277Q/G131W/G231S/I119V/I121R/I166T/I218V/L300P/L318F/N151K/N90K/P208A/P217A/Q86G/Q94H/R138H/R169H/T345S); test: MHC binding assay: UV-ligand exchange with β2m ELISA (peptide exchange yield); settings: binding to HLA-A*02:01 evaluated by peptide exchange yield (UV-ligand exchange, β2m ELISA)
T1 construct: made in house
Method in brief: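 Binding capacity is expressed as the yield of UV-mediated ligand exchange, reflecting how well each peptide stabilizes peptide-receptive MHC. Stabilized complexes are read out by anti-β2m HRP ELISA (450 nm) after streptavidin capture, with refolded MLA-001 monomer standards for quantitation.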

[1] = tested on: CD8+ T cells of healthy HLA-A*02 donors; test: In vitro immunogenicity: T-cell priming with aAPCs loaded with peptide/MHC and anti-CD28, pMHC multimer readout; type: cell-based, human; settings: in vitro immunogenicity, HLA-A*02 restricted peptides; percentage of positive wells among evaluable
From the text: In order to obtain information regarding the immunogenicity of the TUMAPs of the present invention, the inventors performed investigations using an in vitro T-cell priming assay based on repeated stimulations of CD8+ T cells with artificial antigen presenting cells (aAPCs) loaded with peptide/MHC complexes and anti-CD28 antibody.
In order to perform in vitro stimulations by artificial antigen presenting cells loaded with peptide-MHC complex (pMHC) and anti-CD28 antibody, the inventors first isolated CD8+ T cells from fresh HLA-A*02 leukapheresis products via positive selection using CD8 microbeads (Miltenyi Biotec, Bergisch-Gladbach, Germany) of healthy donors obtained from the University clinics Mannheim, Germany, after informed consent. PBMCs and isolated CD8+ lymphocytes were incubated in T-cell medium (TCM) until use consisting of RPMI-Glutamax (Invitrogen, Karlsruhe, Germany) supplemented with 10% heat inactivated human AB serum (PAN-Biotech, Aidenbach, Germany), 100 U/ml Penicillin/100 μg/ml Streptomycin (Cambrex, Cologne, Germany), 1 mM sodium pyruvate (CC Pro, Oberdorla, Germany), 20 μg/ml Gentamycin (Cambrex). 2.5 ng/ml IL-7 (PromoCell, Heidelberg, Germany) and 10 U/ml IL-2 (Novartis Pharma, Nürnberg, Germany) were also added to the TCM at this step. Generation of pMHC/anti-CD28 coated beads, T-cell stimulations and readout was performed in a highly defined in vitro system using four different pMHC molecules per stimulation condition and 8 different pMHC molecules per readout condition.
The purified co-stimulatory mouse IgG2a anti human CD28 Ab 9.3 (Jung et al., 1987) was chemically biotinylated using Sulfo-N-hydroxysuccinimidobiotin as recommended by the manufacturer (Perbio, Bonn, Germany). Beads used were 5.6 μm diameter streptavidin coated polystyrene particles (Bangs Laboratories, Illinois, USA).
pMHC used for positive and negative control stimulations were A*0201/MLA-001 (peptide […] (SEQ ID NO. 289) from modified Melan-A/MART-1) and A*0201/DDX5-001 ([…] from DDX5, SEQ ID NO. 290), respectively.
800.000 beads/200 μl were coated in 96-well plates in the presence of 4×12.5 ng different biotin-pMHC, washed and 600 ng biotin anti-CD28 were added subsequently in a volume of 200 μl. Stimulations were initiated in 96-well plates by co-incubating […] CD8+ T cells with 2×10^5 washed coated beads in 200 μl TCM supplemented with 5 ng/ml IL-12 (PromoCell) for 3 days at 37° C. Half of the medium was then exchanged by fresh TCM supplemented with 80 U/ml IL-2 and incubating was continued for 4 days at 37° C. This stimulation cycle was performed for a total of three times. For the pMHC multimer readout using 8 different pMHC molecules per condition, a two-dimensional combinatorial coding approach was used as previously described (Andersen et al., 2012) with minor modifications encompassing coupling to 5 different fluorochromes. Finally, multimeric analyses were performed by staining the cells with Live/dead near IR dye (Invitrogen, Karlsruhe, Germany), CD8-FITC antibody clone SK1 (BD, Heidelberg, Germany) and fluorescent pMHC multimers. For analysis, a BD LSRII SORP cytometer equipped with appropriate lasers and filters was used. Peptide specific cells were calculated as percentage of total CD8+ cells. Evaluation of multimeric analysis was done using the FlowJo software (Tree Star, Oreg., USA). In vitro priming of specific multimer+ CD8+ lymphocytes was detected by comparing to negative control stimulations.
Exemplary flow cytometry results after TUMAP-specific multimer staining for 15 peptides of the invention are shown in FIGS. 3 and 6 together with corresponding negative controls.

Substance | Peptide exchange (HLA-A*02:01) | Wells positive [%] [1]
260 (ALNESLVEC; listed as Homo sapiens) [compound 260] | +++ (≧50 = +++) | + (<20% = +)
234 (VLLNEILEQV; listed as Homo sapiens) [compound 234] | ++++ (≧75% = ++++) | ++ (20%-49% = ++)
35 (VIIKGLEEI; listed as Homo sapiens) [compound 35] | ++ (≧20% = ++) | + (<20% = +)
166 (LLGDSSFFL; listed as Homo sapiens) [compound 166] | +++ (≧50 = +++) | ++ (20%-49% = ++)
29 (KMISAIPTL; listed as Homo sapiens) [compound 29] | ++ (≧20% = ++) | + (<20% = +)
233 (SLFESLEYL; listed as Homo sapiens) [compound 233] | +++ (≧50 = +++) | + (<20% = +)
97 (KLFEKSTGL; listed as Homo sapiens) [compound 97] | +++ (≧50 = +++) | + (<20% = +)
77 (ALYGNVQQV; listed as Homo sapiens) [compound 77] | +++ (≧50 = +++) | + (<20% = +)
17 (GLLPSAESIKL; listed as Homo sapiens) [compound 17] | ++++ (≧75% = ++++) | + (<20% = +)
102 (GLYPVTLVGV; listed as Homo sapiens) [compound 102] | +++ (≧50 = +++) | + (<20% = +)
251 (LLWGNLPEI; listed as Homo sapiens) [compound 251] | +++ (≧50 = +++) | ++ (20%-49% = ++)
27 (GLLGKVTSV; listed as Homo sapiens) [compound 27] | +++ (≧50 = +++) | + (<20% = +)
254 (ALGDKFLLRV; listed as Homo sapiens) [compound 254] | ++ (≧20% = ++) | + (<20% = +)
242 (KLQEEIPVL; listed as Homo sapiens) [compound 242] | +++ (≧50 = +++) | + (<20% = +)
264 (TLHDQVHLL; listed as Homo sapiens) [compound 264] | ++ (≧20% = ++) | + (<20% = +)
89 (SLAETIFIV; listed as Homo sapiens) [compound 89] | +++ (≧50 = +++) | + (<20% = +)
261 (GLAALAVHL; listed as Homo sapiens) [compound 261] | +++ (≧50 = +++) | ++ (20%-49% = ++)
248 (VLMQDSRLYL; listed as Homo sapiens) [compound 248] | +++ (≧50 = +++) | ++ (20%-49% = ++)
253 (KLLAVIHEL; listed as Homo sapiens) [compound 253] | +++ (≧50 = +++) | ++ (20%-49% = ++)
246 (ALAGIVTNV; listed as Homo sapiens) [compound 246] | +++ (≧50 = +++) | + (<20% = +)

Substance | Peptide exchange (HLA-A*02:01) | Wells positive [%] [1]
257 (KLIDHQGLYL; listed as Homo sapiens) [compound 257] | +++ (≧50 = +++) | + (<20% = +)
66 (AMFPDTIPRV; listed as Homo sapiens) [compound 66] | ++ (≧20% = ++) | + (<20% = +)
255 (FLMKNSDLYGA; listed as Homo sapiens) [compound 255] | +++ (≧50 = +++) | + (<20% = +)
7 (ALLQALMEL; listed as Homo sapiens) [compound 7] | +++ (≧50 = +++) | ++ (20%-49% = ++)
92 (RLFEEVLGV; listed as Homo sapiens) [compound 92] | ++++ (≧75% = ++++) | ++ (20%-49% = ++)
157 (ILQDGQFLV; listed as Homo sapiens) [compound 157] | ++ (≧20% = ++) | + (<20% = +)
11 (LLDPKTIFL; listed as Homo sapiens) [compound 11] | +++ (≧50 = +++) | ++ (20%-49% = ++)
121 (ALYVQAPTV; listed as Homo sapiens) [compound 121] | ++ (≧20% = ++) | + (<20% = +)
236 (KMSELQTYV; listed as Homo sapiens) [compound 236] | +++ (≧50 = +++) | + (<20% = +)
14 (YTFSGDVQL; listed as Homo sapiens) [compound 14] | +++ (≧50 = +++) | + (<20% = +)
101 (SLLEVNEASSV; listed as Homo sapiens) [compound 101] | +++ (≧50 = +++) | + (<20% = +)
9 (SLITGQDLLSV; listed as Homo sapiens) [compound 9] | +++ (≧50 = +++) | + (<20% = +)
275 (AVPPPPSSV; listed as Homo sapiens) [compound 275] | ++ (≧20% = ++) | ++ (20%-49% = ++)
48 (KISDFGLATV; listed as Homo sapiens) [compound 48] | +++ (≧50 = +++) | ++ (20%-49% = ++)
263 (SIIEYLPTL; listed as Homo sapiens) [compound 263] | +++ (≧50 = +++) | + (<20% = +)
4 (VLFGELPAL; listed as Homo sapiens) [compound 4] | +++ (≧50 = +++) | + (<20% = +)
267 (YLLDMPLWYL; listed as Homo sapiens) [compound 267] | +++ (≧50 = +++) | + (<20% = +)
50 (ILLSVLHQL; listed as Homo sapiens) [compound 50] | +++ (≧50 = +++) | + (<20% = +)
117 (TLLEGISRA; listed as Homo sapiens) [compound 117] | ++ (≧20% = ++) | ++ (20%-49% = ++)
